{"source": "paper PMC12990809", "assay_in_all_cases": "pulldown", "key": {"[1]": {"target": "T1, TIA1 (Tetraodon nigroviridis) (UniProt H3D1J1)", "T1 sequence": "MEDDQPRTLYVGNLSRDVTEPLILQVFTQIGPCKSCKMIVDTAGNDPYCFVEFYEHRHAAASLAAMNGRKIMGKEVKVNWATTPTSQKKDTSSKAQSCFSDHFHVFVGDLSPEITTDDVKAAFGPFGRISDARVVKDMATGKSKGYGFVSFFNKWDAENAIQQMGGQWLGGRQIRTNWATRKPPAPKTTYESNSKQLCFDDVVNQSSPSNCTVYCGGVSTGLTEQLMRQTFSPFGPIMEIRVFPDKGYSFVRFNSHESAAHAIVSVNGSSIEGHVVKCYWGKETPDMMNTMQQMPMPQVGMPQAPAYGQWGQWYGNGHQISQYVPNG", "details": "20 nM protein, 1.5 uM RNA pool; 20 mM HEPES pH 7.8, 70 mM KCl, 10 mM NaCl, 10% glycerol, 2 mM DTT, 0.1 ug/uL BSA; 30 min, 4 C"}, "[2]": {"target": "T2, tia1 (Tetraodon nigroviridis) (UniProt H3D7H4)", "T2 sequence": "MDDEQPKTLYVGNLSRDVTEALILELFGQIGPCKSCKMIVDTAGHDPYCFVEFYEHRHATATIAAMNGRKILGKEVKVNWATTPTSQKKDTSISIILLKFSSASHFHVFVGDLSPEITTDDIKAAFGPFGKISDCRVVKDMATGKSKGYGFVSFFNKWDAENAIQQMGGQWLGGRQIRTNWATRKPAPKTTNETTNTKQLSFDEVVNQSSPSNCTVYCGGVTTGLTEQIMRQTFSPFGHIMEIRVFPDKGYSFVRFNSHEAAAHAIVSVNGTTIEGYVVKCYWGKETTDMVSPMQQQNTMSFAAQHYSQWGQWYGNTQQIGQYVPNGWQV", "details": "20 nM protein, 1.5 uM RNA pool; 20 mM HEPES pH 7.8, 70 mM KCl, 10 mM NaCl, 10% glycerol, 2 mM DTT, 0.1 ug/uL BSA; 30 min, 4 C"}, "[3]": {"target": "T3, Tb927.5.810 S125L (Trypanosoma brucei) (UniProt Q57W26)", "T3 sequence": "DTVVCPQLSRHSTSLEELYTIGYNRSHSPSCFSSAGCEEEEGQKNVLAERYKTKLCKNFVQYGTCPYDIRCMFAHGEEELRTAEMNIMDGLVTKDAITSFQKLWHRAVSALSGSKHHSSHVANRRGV", "details": "20 nM protein, 1.5 uM RNA pool; 20 mM HEPES pH 7.8, 70 mM KCl, 10 mM NaCl, 10% glycerol, 2 mM DTT, 0.1 ug/uL BSA; 30 min, 4 C"}, "[4]": {"target": "T4, srsf3 (Xenopus tropicalis) (UniProt A0A8J0SH10)", "T4 sequence": "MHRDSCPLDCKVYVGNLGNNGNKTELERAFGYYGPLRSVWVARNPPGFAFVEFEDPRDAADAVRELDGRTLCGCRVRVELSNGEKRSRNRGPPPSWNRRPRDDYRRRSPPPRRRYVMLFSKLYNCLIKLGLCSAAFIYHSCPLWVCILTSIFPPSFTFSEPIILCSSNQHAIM", "details": "20 nM protein, 1.5 uM RNA pool; 20 mM HEPES pH 7.8, 70 mM KCl, 10 mM NaCl, 10% glycerol, 2 mM DTT, 0.1 ug/uL BSA; 30 min, 4 C"}, "[5]": {"target": "T5, SCHCODRAFT_104251 ins42_DR;V186I (Schizophyllum commune) (UniProt A0ACF2EEN8)", "T5 sequence": "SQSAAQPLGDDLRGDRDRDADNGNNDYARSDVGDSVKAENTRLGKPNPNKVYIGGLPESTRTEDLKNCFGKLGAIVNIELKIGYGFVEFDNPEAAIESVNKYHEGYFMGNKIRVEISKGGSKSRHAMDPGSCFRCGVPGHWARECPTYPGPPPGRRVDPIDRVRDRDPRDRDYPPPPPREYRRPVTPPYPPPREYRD", "details": "20 nM protein, 1.5 uM RNA pool; 20 mM HEPES pH 7.8, 70 mM KCl, 10 mM NaCl, 10% glycerol, 2 mM DTT, 0.1 ug/uL BSA; 30 min, 4 C"}, "[6]": {"target": "T6, NCU04254 (Neurospora crassa) (UniProt Q7S7T0)", "T6 sequence": "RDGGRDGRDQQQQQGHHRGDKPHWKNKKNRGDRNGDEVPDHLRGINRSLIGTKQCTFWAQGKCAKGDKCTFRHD", "details": "20 nM protein, 1.5 uM RNA pool; 20 mM HEPES pH 7.8, 70 mM KCl, 10 mM NaCl, 10% glycerol, 2 mM DTT, 0.1 ug/uL BSA; 30 min, 4 C"}, "[7]": {"target": "T7, mex-5 (Caenorhabditis elegans) (UniProt Q9XUB2)", "T7 sequence": "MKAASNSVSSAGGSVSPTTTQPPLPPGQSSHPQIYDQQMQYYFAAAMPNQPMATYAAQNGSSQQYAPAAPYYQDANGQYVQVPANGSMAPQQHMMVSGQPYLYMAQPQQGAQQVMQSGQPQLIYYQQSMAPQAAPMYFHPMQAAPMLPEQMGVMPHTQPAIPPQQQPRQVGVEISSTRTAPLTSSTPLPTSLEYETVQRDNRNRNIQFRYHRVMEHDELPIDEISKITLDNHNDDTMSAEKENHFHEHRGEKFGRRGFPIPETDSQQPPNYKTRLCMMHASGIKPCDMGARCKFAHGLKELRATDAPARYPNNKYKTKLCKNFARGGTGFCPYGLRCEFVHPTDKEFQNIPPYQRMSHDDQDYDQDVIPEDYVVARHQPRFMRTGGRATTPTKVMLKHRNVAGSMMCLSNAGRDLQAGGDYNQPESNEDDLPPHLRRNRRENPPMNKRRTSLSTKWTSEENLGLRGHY", "details": "20 nM protein, 1.5 uM RNA pool; 20 mM HEPES pH 7.8, 70 mM KCl, 10 mM NaCl, 10% glycerol, 2 mM DTT, 0.1 ug/uL BSA; 30 min, 4 C (protocol of this paper; not …); cited from earlier work"}, "tardbp (Danio rerio)": {"target": "T8, tardbp (Danio rerio) (UniProt A0ACM8Q011)", "T8 sequence": "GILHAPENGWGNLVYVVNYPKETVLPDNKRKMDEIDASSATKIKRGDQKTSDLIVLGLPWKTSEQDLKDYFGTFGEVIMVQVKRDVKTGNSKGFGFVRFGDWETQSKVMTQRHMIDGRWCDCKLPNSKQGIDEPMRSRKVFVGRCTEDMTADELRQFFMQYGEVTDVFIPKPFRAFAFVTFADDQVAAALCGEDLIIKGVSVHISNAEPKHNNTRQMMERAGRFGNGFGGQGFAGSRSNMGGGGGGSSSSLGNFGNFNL", "details": "20 nM protein, 1.5 uM RNA pool; 20 mM HEPES pH 7.8, 70 mM KCl, 10 mM NaCl, 10% glycerol, 2 mM DTT, 0.1 ug/uL BSA; 30 min, 4 C"}, "[8]": {"target": "u2af2b (Tetraodon nigroviridis) (UniProt H3CRP7)", "sequence (H3CRP7 entry or part of it)": "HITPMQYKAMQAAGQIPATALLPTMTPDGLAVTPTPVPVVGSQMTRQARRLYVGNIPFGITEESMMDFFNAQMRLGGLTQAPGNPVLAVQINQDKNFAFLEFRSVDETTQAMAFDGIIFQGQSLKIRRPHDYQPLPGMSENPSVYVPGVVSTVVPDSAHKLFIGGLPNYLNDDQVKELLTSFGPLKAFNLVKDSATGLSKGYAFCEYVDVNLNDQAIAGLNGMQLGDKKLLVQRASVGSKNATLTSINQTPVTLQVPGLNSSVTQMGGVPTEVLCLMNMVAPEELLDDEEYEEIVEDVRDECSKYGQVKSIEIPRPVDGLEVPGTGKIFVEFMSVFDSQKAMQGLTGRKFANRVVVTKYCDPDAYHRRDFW", "details": "20 nM protein, 1.5 uM RNA pool; 20 mM HEPES pH 7.8, 70 mM KCl, 10 mM NaCl, 10% glycerol, 2 mM DTT, 0.1 ug/uL BSA; 30 min, 4 C"}, "[9]": {"target": "T9, RBM24 (Tetraodon nigroviridis) (UniProt H3DM38)", "T9 sequence": "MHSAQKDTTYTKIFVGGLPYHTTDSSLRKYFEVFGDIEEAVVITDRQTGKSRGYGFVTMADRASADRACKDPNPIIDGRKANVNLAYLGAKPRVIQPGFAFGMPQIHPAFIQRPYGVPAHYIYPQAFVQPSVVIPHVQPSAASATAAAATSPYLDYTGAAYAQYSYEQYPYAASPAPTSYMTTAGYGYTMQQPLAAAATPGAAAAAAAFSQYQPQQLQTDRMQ", "details": "20 nM protein, 1.5 uM RNA pool; 20 mM HEPES pH 7.8, 70 mM KCl, 10 mM NaCl, 10% glycerol, 2 mM DTT, 0.1 ug/uL BSA; 30 min, 4 C"}, "[10]": {"target": "T10, PK21303.1 (Cannabis sativa) (UniProt A0A803NH45)", "T10 sequence": "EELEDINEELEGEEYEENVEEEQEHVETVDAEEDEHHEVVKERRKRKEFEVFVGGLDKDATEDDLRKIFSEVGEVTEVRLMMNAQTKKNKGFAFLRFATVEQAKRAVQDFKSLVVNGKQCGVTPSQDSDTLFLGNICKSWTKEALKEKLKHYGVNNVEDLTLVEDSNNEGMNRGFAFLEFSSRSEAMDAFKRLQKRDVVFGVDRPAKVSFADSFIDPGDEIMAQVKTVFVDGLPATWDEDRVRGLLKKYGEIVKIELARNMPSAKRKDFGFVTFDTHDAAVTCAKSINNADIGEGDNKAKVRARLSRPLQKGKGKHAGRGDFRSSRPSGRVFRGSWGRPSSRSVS", "details": "20 nM protein, 1.5 uM RNA pool; 20 mM HEPES pH 7.8, 70 mM KCl, 10 mM NaCl, 10% glycerol, 2 mM DTT, 0.1 ug/uL BSA; 30 min, 4 C"}, "hnrnpa0b (Danio rerio)": {"target": "hnrnpa0b (Danio rerio) (UniProt A0A8M1PHH6)", "sequence (A0A8M1PHH6 entry or part of it)": "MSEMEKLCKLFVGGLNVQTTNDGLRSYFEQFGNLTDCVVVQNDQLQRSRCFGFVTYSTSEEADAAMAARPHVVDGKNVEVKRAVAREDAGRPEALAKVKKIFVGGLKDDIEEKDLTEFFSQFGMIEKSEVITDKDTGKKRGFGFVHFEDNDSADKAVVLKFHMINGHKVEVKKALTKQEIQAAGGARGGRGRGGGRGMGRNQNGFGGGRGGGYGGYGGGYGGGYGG", "details": "20 nM protein, 1.5 uM RNA pool; 20 mM HEPES pH 7.8, 70 mM KCl, 10 mM NaCl, 10% glycerol, 2 mM DTT, 0.1 ug/uL BSA; 30 min, 4 C"}}, "data": [{"sequence": "UUUUUU [RNAcompete motif RNCMPT01672]", "values": [{"measurement": "binding signal (z-score (mean of top ten 7-mers))", "setting": "[1]", "value": 8.74}]}, {"sequence": "UUUUUUG [RNAcompete motif RNCMPT01674]", "values": [{"measurement": "binding signal (z-score (mean of top ten 7-mers))", "setting": "[2]", "value": 6.08}]}, {"sequence": "UAUUAUU [RNAcompete motif RNCMPT00837]", "values": [{"measurement": "binding signal (z-score (mean of top ten 7-mers))", "setting": "[3]", "value": 13}]}, {"sequence": "AACAAC [RNAcompete motif RNCMPT01680]", "values": [{"measurement": "binding signal (z-score (mean of top ten 7-mers))", "setting": "[4]", "value": 9.74}]}, {"sequence": "GACUA [RNAcompete motif RNCMPT00866]", "values": [{"measurement": "binding signal (z-score (mean of top ten 7-mers))", "setting": "[5]", "value": 6.58}]}, {"sequence": "GAAUGG [RNAcompete motif RNCMPT00835]", "values": [{"measurement": "binding signal (z-score (mean of top ten 7-mers))", "setting": "[6]", "value": 8.35}]}, {"sequence": "UAAUA [RNAcompete motif RNCMPT00039]", "values": [{"measurement": "binding signal (z-score (mean of top ten 7-mers))", "setting": "[7]", "value": 18}]}, {"sequence": "UGAAUGA [RNAcompete motif RNCMPT01664]", "values": [{"measurement": "binding signal (z-score (mean of top ten 7-mers))", "setting": "tardbp (Danio rerio)", "value": 9.7}]}, {"sequence": "UUUUUCC [RNAcompete motif RNCMPT01670]", "values": [{"measurement": "binding signal (z-score (mean of top ten 7-mers))", "setting": "[8]", "value": 10.4}]}, {"sequence": "GAGUGUG [RNAcompete motif RNCMPT01677]", "values": [{"measurement": "binding signal (z-score (mean of top ten 7-mers))", "setting": "[9]", "value": 9.92}]}, {"sequence": "AGAAGGA [RNAcompete motif RNCMPT00831]", "values": [{"measurement": "binding signal (z-score (mean of top ten 7-mers))", "setting": "[10]", "value": 6.57}]}, {"sequence": "UUAGAUAG [RNAcompete motif RNCMPT01667]", "values": [{"measurement": "binding signal (z-score (mean of top ten 7-mers))", "setting": "hnrnpa0b (Danio rerio)", "value": 9.2}]}]}
